Results reported in US20220291215A1 (published 2022).
Values belong to the binder of their own block, whether it stands above or below them.

Columns and labels:
Assay in all cases: multimer staining
[1] = target: T1, MAGE-A2 peptide on HLA-DPA1*01:03 / HLA-DPB1*04:01 (human)
T1 peptide: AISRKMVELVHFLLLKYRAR

[2] = target: T2, MUC5AC peptide on HLA-DPA1*01:03 / HLA-DPB1*04:01 (human)
T2 peptide: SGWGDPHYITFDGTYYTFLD

[3] = target: T3, HSD17B12 peptide on HLA-DPA1*01:03 / HLA-DPB1*04:01 (human)
T3 peptide: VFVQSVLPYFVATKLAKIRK

[4] = target: T4, CCND1 peptide on HLA-DPA1*01:03 / HLA-DPB1*04:01 (human)
T4 peptide: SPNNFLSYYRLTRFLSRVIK

[5] = target: T5, LY6K peptide on HLA-DRA*01:01 / HLA-DRB1*01:01 (human)
T5 peptide: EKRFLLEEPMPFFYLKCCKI

[6] = target: T6, LGSN peptide on HLA-DPA1*01:03 / HLA-DPB1*04:01 (human)
T6 peptide: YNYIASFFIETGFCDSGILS

binding result [1]: recognises
B1: 06-MAGE-A2108-127 (TCR)
alpha TRAV19*01 TRAJ40*01 CDR3: CALSVGTYKYIF
beta TRBV7-9*01 TRBJ2-5*01 CDR3: CASSPGTGGRETQYF

binding result [1]: recognises
B2: 03-MAGE-A2108-127 (TCR)
alpha TRAV36/DV7*04 TRAJ40*01 CDR3: CAVEVNSGTYKYIF
beta TRBV2*01 TRBJ1-1*01 CDR3: CASRRDLAAFF

binding result [2]: recognises
B3: 05-MUC5AC4922-4941 (TCR)
Valpha: QTVTQSQPEMSVQEAETVTLSCTYDTSESNYYLFWYKQPPSRQMILVIRQEAYKQQNATENRFSVNFQKAAKSFSLKISDSQLGDTAMYFCAFMKRAETSGSRLTFGEGTQLTVNP
beta TRBV6-2*01 TRBJ2-5*01 CDR3: CASSYWPTRETQYF

binding result [3]: recognises
B4: 05-HSD17B12225-244 (TCR)
alpha TRAV22*01 TRAJ18*01 CDR3: CAVAPYDRGSTLGRLYF
beta TRBV19*01 TRBJ2-5*01 CDR3: CASSTGQGLETQYF

binding result [4]: recognises
B5: 03-CCND1219-238 (TCR)
alpha TRAV2*01 TRAJ21*01 CDR3: CAVCTLYNFNKFYF
beta TRBV6-5*01 TRBJ2-1*01 CDR3: CASLTDNNEQFF

binding result [5]: recognises
B6: DR1-08-LY6K99-118 (TCR)
alpha TRAV38-2/DV8*01 TRAJ52*01 CDR3: CAYRSFLNAGGTSYGKLTF
beta TRBV20-1*01 TRBJ1-6*01 CDR3: CAASRESKWSSYNSPLHF

binding result [6]: recognises
B7: 05-LGSN296-315 (TCR)
alpha TRAV9-2*03 TRAJ32*01 CDR3: CALSDLSYGGATNKLIF
beta TRBV27*01 TRBJ1-5*01 CDR3: CASSKGQGLGNQPQHF
